# Laboratory results as given in the RNAGym collection of RNA variant scans (doi:10.1073/pnas.2313332121).
# B1: TPR t1 (parent)
# chain: GACCAAUCUGCCCUCAGAGCUCGAGAACAUCUUCGGAUGCAGAGGAGGCAGGCUUCGGUGGCGCGAUAGCGCCAACGUCCUCAACCUCCAAUGCAUCCCACCACAUGAUGAUGCCUGAAGAGCCUUGGUUUUUUG
# Variants of: B1
# Experiment: polymerase ribozyme fitness, log enrichment relative to wild type (log ratio); higher = more active; in vitro selection for triplet polymerase activity
# In short: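 Frozen incubation at −7 °C formed the core of a single, triplicate in vitro selection round applied to PCR-built, transcribed mutant libraries of each subunit of a heterodimeric triplet polymerase ribozyme. Extended constructs were gel-excised, captured with streptavidin beads and amplified by RT-PCR, and input and output libraries were Illumina-sequenced with a filter of ≥10 input reads and ≥1 read per output. Fitness is the logarithm of genotype enrichment relative to wild-type enrichment, with inverse-variance-weighted replicate averaging, and the logarithm is base 2.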
row,Variant,polymerase ribozyme fitness (log ratio)
1,C72A G120A,1.06
2,A74U C88U U116A,-3.69
3,C73A G127U,-0.602
4,C73A U132A,0.117
5,C73U C82U A91U A100U,-3.21
6,C73G C97G C114A A121G,-5.74
7,C73A C102U U125G,-2.45
8,C72G C86G U92A A111G G128U U132C,-6.17
9,G71U G127U,-1.02
10,C72G C85U C86U,-2.99
11,C72G U131A,-0.469
12,G77A A95C,-0.839
13,C72A A91C G127A,-2.21
14,C72U U133C,0.275
15,A74U G128U U130C,-0.708
16,G77A U81A,-1.01
17,G77C A95U,-0.809
18,C76A G110A,-1.79
19,G77U A84G C85G,-2.45
20,C72U C89G G113C,-3.26
21,C72A C86U A108U,-5.12
22,G77U G128C,-3.09
23,G77U C114G,-2.88
24,C73G U96G C115G,-3.54

row,Variant,polymerase ribozyme fitness (log ratio)
1,U78C A83U,-0.61
2,U78A,-0.254
3,U78C,-0.247
4,C72U C76A C88A U96A,-3.05
5,C73G C115A,-1.04
6,C73A C101A,-1
7,C73G G120C,0.461
8,C73G A90G G113U A118C,-5.26
9,A74U C94U,-0.301
10,C73A C104A U116G C124A,-1.19
11,A74U A83U A84C G120U G122A U125A,-1.84
12,C76A A119G,0.169
13,C72U C94G A95G C123U,-0.867
14,G71U C124G,1.72
15,U78C C85G U129C,-2.13
16,C73A U78C,-0.268
17,C73A C123U,1.47
18,A75U C85A U92C G113C,-3.69
19,C72U G77U C104A,-2.21
20,G77A G120A G128C,-2.08
21,G77C C104A U116G G122A,-5.01
22,C76G A95G,-0.229
23,C73U C79G G113U,-5.88
24,G71U U81C G93A G120A,-0.964

row,Variant,polymerase ribozyme fitness (log ratio)
1,C73A U78C A90C A91U U109G,-7.04
2,C76U C97U,-0.795
3,C72G C98U A105C,-4.92
4,C73U A100U G110A,-1.9
5,C72A C102U,-1.48
6,C72G G110A,-1.14
7,G77U C79A,-2.32
8,A75U C104U U106A,-0.439
9,C73U G107A A108G G120A C124A,-3.12
10,U78A C79A A95C,-4.32
11,G77A A121U,1.88
12,C76G C82U,-0.815
13,C76G C85A U132C,-0.689
14,U78C A111C,0.402
15,C76A C85A,-0.928
16,A74C A90U,-0.572
17,U78C C80U C99U A121G,-3.12
18,A74U G113A,-1.11
19,A74U G113U,-3.37
20,A74G C89G,-1.41
21,C72A C94U G120C,1.05
22,A75G U129C,-0.465
23,C72G C82G A105C,-4.16
24,A74C A90C C101G,-3.22

row,Variant,polymerase ribozyme fitness (log ratio)
1,U78A G93A C97A A121C,-5.11
2,C76U C88U,-0.561
3,C72A U78G,-1.71
4,C72A A100C G120A,-0.61
5,C76U A90G C115A,-0.0334
6,C73G U92A,-5.66
7,C73U C102A,-1.58
8,A75G U112A U131A,1.22
9,A75U C86U C88U,0.294
10,U78C A84C U96G U116G,-3.6
11,A74U U109C,-4.13
12,G77U U106C C124A,-3.43
13,C72A A118C,-2.72
14,A74U G117A U130C,-2.62
15,C72G C79G,-1.67
16,G71U G122A,-0.705
17,C72U A105U,-2.43
18,C73G G113U,-2.74
19,C73G C94G,-1.94
20,C73G C94A,-2.58
21,G77A C79U,0.354
22,C72U A90C,-1.33
23,A74G U96G,-0.295
24,C72U U132A,-0.0764

row,Variant,polymerase ribozyme fitness (log ratio)
1,A75G U106G C124A,0.661
2,C72G C104U,-0.348
3,A74U G77U C98U C102G,-6.8
4,C76A C115U,-2.9
5,C72A U129A,-1.32
6,C72A C80U C88U,-0.793
7,C73U G120C,1.2
8,C73G C123U,0.00475
9,C76U U92G,-3.28
10,C72G A121C,1.48
11,U78C A84G G128A,-3.53
12,C73G A90C,-2.17
13,C72A G110U,-1.54
14,C73U C102U U131C,-1.19
15,C73A C104A A108G U112A A118G G122U,-5.56
16,A74U U130G,-0.154
17,C73U A91C,-1.74
18,U78A A100C,-1.08
19,C72A C123A,0.479
20,C72A C123U,1.5
21,C73A G122A,-0.64
22,C76U C82A G120A,0.131
23,C72A U78A C124A U132C U133A,1.3
24,C72A C86G C89U,-1.07

row,Variant,polymerase ribozyme fitness (log ratio)
1,C76G G93A C124G,1.31
2,G77C C102U,-2.02
3,C76A,-0.611
4,C76U,-0.164
5,C76G,-0.207
6,C72A U131A G135U,0.0704
7,C72G C102U,-1.53
8,C73G C97U A118U,-1.07
9,C72A A83C U96A G110A,-2.24
10,C72G C88A C94U G120C,-1.57
11,C73U U81A U116G U125A,-4.02
12,G77U A91U,-2.18
13,U78C C88A,-0.513
14,G77C A90G A111G,-0.0361
15,C72U C85U C104G U112A G122U U133G,-6.97
16,C72A C86U,-0.17
17,A75U A95C U116C U125C,-3.04
18,C72G A103U,-5.45
19,C72A C124U U131A,1.33
20,C73U C115A,-0.495
21,C72A G110A U131A,-0.37
22,C72U G93U A111G,-2.76
23,A74U U87G,0.353
24,G77U U125A,-1.21

row,Variant,polymerase ribozyme fitness (log ratio)
1,A74U G93A C123A,-0.279
2,C72G C88G C115U,-3.24
3,C76A C99U G120U,-5.6
4,C73G C82U,-0.556
5,C76A C115U U129A,-4.13
6,C72G C86A G93C C104G A108U U109G A118G,-6.21
7,C76G U78C G135U,-1.36
8,C72U G122U,0.145
9,G71U C115U,-1.41
10,A74U C104A,-1.82
11,C72U A118G,-0.902
12,G77U U92G C124U,-1.84
13,C76G U78A U81A C89G A119U,-3.52
14,G77C C97U U109A,-5.64
15,C72U C76U A121C,1.1
16,C72A U96A U109G,-6.14
17,C72U U78C G117U G122A U130G,-2.87
18,U78C A91G G93U,-2.35
19,U78A C94U C115A G127C,-1.41
20,C72U G117C,-2.69
21,A75G U116A G117U C123U,-2.78
22,A75C,-0.585
23,A75U,-0.493
